We go through 3 molecules from patent publication EP4740964A1, “NANO DELIVERY SYSTEM, PREPARATION METHOD THEREFOR AND USE THEREOF” (Chen, Haiyan, priority 2023, dated 2025).

The target of test [1] is T1, CD22 on the surface of Raji cells (UniProt P20273 20-847, limits assumed).
T1 construct: whole, on cells; also called antigen CD22
The test can be described thus: flow cytometry on Raji cells, Alexa Fluor 488 anti-human IgG detection. A general note: Flow cytometry measures light scatter and fluorescence of single cells or particles in a stream.

Test [2] has as its target T2, CD19 on the surface of Raji cells (UniProt P15391 20-556, limits assumed).
T2 construct: whole, on cells; also called antigen CD19
T2 sequence (looked up): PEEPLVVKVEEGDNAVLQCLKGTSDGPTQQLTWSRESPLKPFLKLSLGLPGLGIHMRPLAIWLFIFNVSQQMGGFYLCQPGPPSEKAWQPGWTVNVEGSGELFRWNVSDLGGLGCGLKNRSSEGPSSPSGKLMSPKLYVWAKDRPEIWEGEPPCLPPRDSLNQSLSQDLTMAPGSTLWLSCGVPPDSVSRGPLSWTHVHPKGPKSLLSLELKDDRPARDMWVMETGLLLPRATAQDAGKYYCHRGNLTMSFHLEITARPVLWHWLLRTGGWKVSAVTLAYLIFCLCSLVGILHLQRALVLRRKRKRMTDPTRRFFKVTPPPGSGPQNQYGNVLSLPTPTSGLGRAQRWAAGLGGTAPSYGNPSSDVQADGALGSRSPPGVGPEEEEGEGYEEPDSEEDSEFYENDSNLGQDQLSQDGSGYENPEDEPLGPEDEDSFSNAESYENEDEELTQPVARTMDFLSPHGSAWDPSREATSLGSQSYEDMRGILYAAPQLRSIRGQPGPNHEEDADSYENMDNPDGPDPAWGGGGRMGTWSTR
The test is described as above.

B1: CD22 IgG antibody (antibody, V domains shown)
VH: EVQLVQSGAEVKKPGASVKVSCKASGYRFTNYWIHWVRQAPGQGLEWIGGINPGNNYATYRRKFQGRVTMTADTSTSTVYMELSSLRSEDTAVYYCTREGYGNYGAWFAYWGQGTLVTVSS
VL: DVQVTQSPSSLSASVGDRVTITCRSSQSLANSYGNTFLSWYLHKPGKAPQLLIYGISNRFSGVPDRFSGSGSGTDFTLTISSLQPEDFATYYCLQGTHQPYTFGQGTKVEIKR
Turning to B1, in test [1], the binding result was “binds”.

B2: CD19 IgG antibody (antibody, V domains shown)
VH: QVQLVQSGAEVKKPGSSVKVSCKASGYAFSSYWMNWVRQAPGQGLEWMGQIWPGDSDTNYAQKFQGRVTITADESTSTAYMELSSLRSEDTAVYYCARRETTTVGRYYYAMDYWGQGTTVTVSS
VL: DIQLTQSPSFLSASVGDRVTITCKASQSVDYSGDSYLNWYQQKPGKAPKLLIYDASNLVSGVPSRFSGSGSGTEFTLTISSLQPEDFATYYCQQSTENPWTFGGGTKLEIKR
Consider B2, for which, in test [2], the binding result is listed as “binds”.

B3: CD19 antibody antigen-binding fragment Fab (Fab, V domains shown)
VH: B2 VH
VL: B2 VL
notes: also called CD19 Fab
Regarding B3, in test [2], the binding result is on record as “binds”.
